Source: patent US20020028202A1 (Biogen, published 2002)

Assays:
[1] = biological target: T1, human gc chain (common gamma chain of cytokine receptors) on the cell surface (human, UniProt P31785 23-369); test: cell-based or functional assay
T1 sequence (looked up): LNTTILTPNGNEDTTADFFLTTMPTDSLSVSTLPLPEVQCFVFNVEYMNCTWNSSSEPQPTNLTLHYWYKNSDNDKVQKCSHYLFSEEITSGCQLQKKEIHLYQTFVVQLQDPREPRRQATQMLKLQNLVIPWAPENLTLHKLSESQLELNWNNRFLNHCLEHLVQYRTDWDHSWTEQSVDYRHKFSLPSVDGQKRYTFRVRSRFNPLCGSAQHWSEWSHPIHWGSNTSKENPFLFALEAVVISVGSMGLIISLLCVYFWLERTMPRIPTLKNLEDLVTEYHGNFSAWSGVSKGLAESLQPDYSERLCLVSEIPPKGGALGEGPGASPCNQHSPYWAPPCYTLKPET

[2] = biological target: T2, human gc chain mutant, FNV replaced by Ala (Domain 1 Loop AB), myc-tagged, on COS-7 cells (human, UniProt P31785 23-369); test: staining of transfected COS-7 cells, FACS
T2 construct: whole, on cells; not shown: 9 amino acid myc tag at the 5' end of the construct
T2 sequence (looked up): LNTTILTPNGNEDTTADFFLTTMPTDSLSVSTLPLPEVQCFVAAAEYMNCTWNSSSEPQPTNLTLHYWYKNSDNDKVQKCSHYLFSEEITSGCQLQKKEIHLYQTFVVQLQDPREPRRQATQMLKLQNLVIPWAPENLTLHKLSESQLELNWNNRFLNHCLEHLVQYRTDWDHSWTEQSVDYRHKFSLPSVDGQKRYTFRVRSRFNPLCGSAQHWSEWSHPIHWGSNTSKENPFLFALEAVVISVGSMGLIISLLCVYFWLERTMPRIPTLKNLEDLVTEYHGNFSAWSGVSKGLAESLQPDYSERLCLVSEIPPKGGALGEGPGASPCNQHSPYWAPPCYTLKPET

[3] = biological target: T3, human gc chain mutant, LQN replaced by Ala (interdomain residues), myc-tagged, on COS-7 cells (human, UniProt P31785 23-369); test: staining of transfected COS-7 cells, FACS
T3 construct: whole, on cells; not shown: 9 amino acid myc tag at the 5' end of the construct
T3 sequence (looked up): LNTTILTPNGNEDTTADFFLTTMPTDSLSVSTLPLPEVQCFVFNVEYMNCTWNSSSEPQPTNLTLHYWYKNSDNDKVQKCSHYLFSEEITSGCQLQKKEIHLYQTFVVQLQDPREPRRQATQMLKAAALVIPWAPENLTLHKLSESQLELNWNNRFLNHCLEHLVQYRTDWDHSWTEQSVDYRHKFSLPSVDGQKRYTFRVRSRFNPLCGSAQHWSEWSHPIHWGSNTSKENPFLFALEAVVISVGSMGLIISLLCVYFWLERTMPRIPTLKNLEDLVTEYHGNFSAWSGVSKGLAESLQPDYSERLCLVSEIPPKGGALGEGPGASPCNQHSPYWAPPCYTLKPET

[4] = biological target: T4, human gc chain mutant, VIP replaced by Ala (interdomain residues), myc-tagged, on COS-7 cells (human, UniProt P31785 23-369); test: staining of transfected COS-7 cells, FACS
T4 construct: whole, on cells; not shown: 9 amino acid myc tag at the 5' end of the construct
T4 sequence (looked up): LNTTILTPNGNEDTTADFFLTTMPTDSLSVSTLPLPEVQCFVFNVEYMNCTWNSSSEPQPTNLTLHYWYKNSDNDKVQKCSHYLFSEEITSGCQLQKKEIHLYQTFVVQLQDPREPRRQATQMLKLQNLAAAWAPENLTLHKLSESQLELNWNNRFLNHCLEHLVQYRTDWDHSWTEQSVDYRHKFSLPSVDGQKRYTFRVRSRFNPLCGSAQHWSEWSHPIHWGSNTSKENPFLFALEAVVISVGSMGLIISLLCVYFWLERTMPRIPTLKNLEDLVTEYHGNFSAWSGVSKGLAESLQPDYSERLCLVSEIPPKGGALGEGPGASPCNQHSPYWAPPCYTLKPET

[5] = biological target: T5, human gc chain mutant, ESQ replaced by Ala (Domain 2 Loop AB), myc-tagged, on COS-7 cells (human, UniProt P31785 23-369); test: staining of transfected COS-7 cells, FACS
T5 construct: whole, on cells; not shown: 9 amino acid myc tag at the 5' end of the construct
T5 sequence (looked up): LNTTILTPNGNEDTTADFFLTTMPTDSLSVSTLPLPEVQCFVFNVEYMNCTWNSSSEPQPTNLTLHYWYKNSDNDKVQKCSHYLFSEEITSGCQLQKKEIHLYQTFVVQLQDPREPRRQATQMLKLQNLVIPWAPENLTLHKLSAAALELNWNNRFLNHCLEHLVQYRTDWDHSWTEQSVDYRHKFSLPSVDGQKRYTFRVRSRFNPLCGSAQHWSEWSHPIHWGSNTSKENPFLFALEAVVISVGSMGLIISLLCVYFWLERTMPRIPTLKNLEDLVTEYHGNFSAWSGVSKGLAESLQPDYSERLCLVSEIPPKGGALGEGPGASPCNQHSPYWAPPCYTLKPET

B1: CP.B8 monoclonal antibody (murine anti-human gc chain, hybridoma ATCC HB-12107) (antibody, V domains shown)
VH: LQESGPGLVAPSQSLSITCTVSGFSLTSYGVHWVRQPPGKGLEWLGVIWAGGSTNYNSALMSRLNINRDNSKSQIFLKMNSLQTDDTAIYYCAREGSTVDSMDYWGQGTTVT
VL: DIVMTQSHKFMSTSVGDSITITCKASQDVTTAVAWYQQKPGQSPKLLIYWASTRHTGVPDRFTGSGSGTDYTLTISSVQAEDLALYYCQQHYITPWTFGGGTKLEI
notes: Used unconjugated and biotin-conjugated; also called CP.B8 mAb; mAb CP.B8
[1]
  inhibition of IL-2-induced T cell proliferation, 73 pM IL-2, mAb at 100 ug/ml, relative to MOPC21: 51%
  inhibition of IL-2-induced T cell proliferation, 219 pM IL-2, mAb at 100 ug/ml, relative to MOPC21: 44%
[2]
  % binding to mutant gc chain/wildtype gc chain: 9%
[3]
  % binding to mutant gc chain/wildtype gc chain: 4%
[4]
  % binding to mutant gc chain/wildtype gc chain: 21%
[5]
  % binding to mutant gc chain/wildtype gc chain: 75%
